Assay results reported in patent US20110271408A1.

Molecular target: HAB1 (PP2C used in the in vitro phosphatase activity assays) (UniProt Q9CAJ0)
Experiment: cell-based or functional assay

HAB1 (PP2C used in the in vitro phosphatase activity assays), sequence (Q9CAJ0 23-511 limits assumed): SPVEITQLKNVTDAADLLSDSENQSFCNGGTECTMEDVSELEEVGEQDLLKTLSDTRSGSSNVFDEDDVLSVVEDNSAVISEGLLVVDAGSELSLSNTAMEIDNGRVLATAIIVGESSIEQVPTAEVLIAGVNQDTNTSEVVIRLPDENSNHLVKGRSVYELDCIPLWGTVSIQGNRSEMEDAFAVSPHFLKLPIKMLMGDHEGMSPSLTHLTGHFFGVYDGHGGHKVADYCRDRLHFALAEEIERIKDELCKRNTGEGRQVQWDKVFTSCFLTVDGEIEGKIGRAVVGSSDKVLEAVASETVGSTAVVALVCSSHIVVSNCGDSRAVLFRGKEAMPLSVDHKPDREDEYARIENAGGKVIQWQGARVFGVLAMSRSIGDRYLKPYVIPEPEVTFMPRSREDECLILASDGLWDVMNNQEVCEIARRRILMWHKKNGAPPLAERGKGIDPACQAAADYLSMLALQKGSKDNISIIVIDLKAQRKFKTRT

in vitro receptor assay (PP2C activity, 2:1 receptor to phosphatase); IC50 of fenhexamid: 400 nM
Substance: PYR1 K59R, Y120H, M158I triple mutant (recombinant protein) (from UniProt O49686 1-191) (receptor)
